Data set [1] concerns the target T1, human collagen type I (h Col I) (Homo sapiens, UniProt P02452+P08123).
T1 construct: purchased Sigma C5483-1MG
Description: ELISA specificity vs human collagen type I. The format is binding. The protocol:
(§1) High binding plates (Greiner, 781061) were immobilized with 2.5 μg/ml recombinant human collagen type II (h Col II, Chondrex, CHX-20051), rabbit collagen type II (rbCol II, prepared from rabbit eyes), porcine collagen type II (p Col II, prepared from porcine eyes), human collagen type I, (h Col I, Sigma, C5483-1MG), human collagen type V (h Col V, Abcam, ab7537), human collagen type III (h Col Ill, Abcam, ab7535) and 67B89 (domain of fibronectin, produced in E. coli) respectively over night at 4° C. ELISA-plates were washed 3 times with PBST (PBS+ 0.1% Tween) and blocked with 3% BSA/0.5% Tween/PBS 2 h at RT. After washing with PBST, dilution series of 1.1 μM to 7×10^−4 nM of dimers (CID 211999, CID 212000), dilution series of 100 nM to 7×10^−6 nM of tetramers (CID 212001 and CID 212704) and dilution series of 10 μM to 2 nM of dimer (CID 212705) were incubated on ELISA-plates 1 h at rt. Plates were washed with PBST and incubated with biotinylated anti-StrepTag-ab (Antikörper-online, ABIN1573895) with a dilution of 1:10.000 for 1 h at rt. The binding was visualized with a-rabbit-IgG-HRP (Sigma, A9169) with a dilution of 1:10.000 and as substrate TMB Plus von KEM EN TEC Diagnostic, Kat-Nr. 4395.

Data set [2] concerns the target T2, 67B89 (domain of fibronectin) (Homo sapiens, UniProt P02751).
T2 construct: unrelated fibronectin domain EDB (67B89) could be observed; made in house; host or cells: E. coli
Nature of the data set: ELISA specificity vs 67B89. The data set is classed as binding. On the procedure: as §1
A general note: In an ELISA, binding on a coated surface is turned into a signal by an enzyme label.

A further data set addresses T3, human collagen type III (Homo sapiens, UniProt P02461).
T3 construct: purchased Abcam ab7535
T3 sequence (P02461 154-1221 limits assumed): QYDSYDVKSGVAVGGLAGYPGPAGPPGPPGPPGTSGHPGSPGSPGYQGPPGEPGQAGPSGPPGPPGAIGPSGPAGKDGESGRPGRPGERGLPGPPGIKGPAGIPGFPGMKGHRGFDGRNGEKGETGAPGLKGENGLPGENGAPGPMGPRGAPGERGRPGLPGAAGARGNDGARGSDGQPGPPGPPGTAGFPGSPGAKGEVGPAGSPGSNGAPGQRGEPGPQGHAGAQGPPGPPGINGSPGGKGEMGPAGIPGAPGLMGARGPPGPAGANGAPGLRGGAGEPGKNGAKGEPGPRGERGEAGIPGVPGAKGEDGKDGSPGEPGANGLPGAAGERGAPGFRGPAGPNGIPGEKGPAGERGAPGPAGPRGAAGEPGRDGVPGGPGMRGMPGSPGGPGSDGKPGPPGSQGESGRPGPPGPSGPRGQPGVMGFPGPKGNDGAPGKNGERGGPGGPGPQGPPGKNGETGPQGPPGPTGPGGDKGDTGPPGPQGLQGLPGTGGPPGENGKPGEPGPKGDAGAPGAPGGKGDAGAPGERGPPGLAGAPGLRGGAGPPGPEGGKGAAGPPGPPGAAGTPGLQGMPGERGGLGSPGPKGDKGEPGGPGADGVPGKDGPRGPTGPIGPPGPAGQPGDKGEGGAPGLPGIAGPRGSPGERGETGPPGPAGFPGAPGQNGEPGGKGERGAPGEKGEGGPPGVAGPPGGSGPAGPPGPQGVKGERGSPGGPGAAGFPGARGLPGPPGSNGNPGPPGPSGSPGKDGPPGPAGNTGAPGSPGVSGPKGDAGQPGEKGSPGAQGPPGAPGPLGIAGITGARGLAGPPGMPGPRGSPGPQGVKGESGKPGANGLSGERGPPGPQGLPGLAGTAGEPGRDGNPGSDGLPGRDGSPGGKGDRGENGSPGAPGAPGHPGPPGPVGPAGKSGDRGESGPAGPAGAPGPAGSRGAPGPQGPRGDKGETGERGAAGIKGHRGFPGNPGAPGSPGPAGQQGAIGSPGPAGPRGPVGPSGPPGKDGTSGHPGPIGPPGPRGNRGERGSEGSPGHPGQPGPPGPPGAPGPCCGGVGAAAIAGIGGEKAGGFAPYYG
Nature of the data set: ELISA specificity vs human collagen type III. The format is binding. The protocol: as §1

For data set [3], the target named is T4, hCol2 (human Type II collagen) (Homo sapiens, UniProt P02458).
T4 construct: purchased Chondrex
Nature of the data set: Binding analysis by SPR (Biacore 3000) vs human type II collagen. The following applies: for Affinity [SPR] vs hCol2: dimers or tetramers, Langmuir 1:1 model. On the procedure: (§2) Proteins with affinity tag were purified by affinity chromatography and size exclusion. After affinity chromatography purification using Strep-Tactin Superflow high capacity cartridges (IBA Lifesciences) a size exclusion chromatography (SEC) was performed using an Äkta system and a Superdex™ 200 HiLoad 16/600 column (Cytiva). Fused variants with Aflibercept were purified via MabSelect SuRe (Cytiva) affinity chromatography followed by a size exclusion chromatography (SEC) using an Äkta system and a Superdex™ 200 HiLoad 16/600 column (Cytiva). All chromatography processing steps were carried out on AKTA systems using matrices from Cytiva. Homogenous species of all purified ligands were obtained; no aggregation was detected. Following SOS-PAGE analysis positive fractions were pooled and their protein concentrations were measured. Further analysis included SOS-PAGE, SE-HPLC and RP-HPLC. Protein concentrations were determined by absorbance measurement at 280 nm using the molar absorbent coefficient. Reversed phase chromatography (RP-HPLC) was performed using a Dionex HPLC system and a PLRP-S (5 μm, 300 Å) column (Agilent). Analytic size exclusion chromatography (SE-HPLC) was performed using a Dionex HPLC system and a Superdex200 increase 5/150 GL (Cytiva). Binding of Collagen II was evaluated by SPR measurements using a Biacore 3000 system. Purified Collagen II was obtained from Chondrex.inc and VEGF-165 was obtained from Millipore. Targets were immobilized on a CM5-Sensor via NHS/EDC chemistry (immobilization level ˜1000 RU). Binding molecules were injected at different concentration and affinity was calculated by langmuir 1:1 binding model.
The purified proteins were immobilized on a CM-5 sensor chip (GE Healthcare) using NHS/EDC after PDEA activation resulting in 110-140 RU with a Biacore 3000 system (GE Healthcare). The chip was equilibrated with SPR running buffer (PBS 0.05% Tween pH 7.3). Upon binding, target analyte was accumulated on the surface increasing the refractive index. This change in the refractive index was measured in real time and plotted as response or resonance units versus time. The analytes were applied to the chip in serial dilutions with a flow rate of 30 μl/min. The association was performed for 120 seconds and the dissociation for 120 seconds. After each run, the chip surface was regenerated with 30 μl regeneration buffer (10 mM glycine pH 2.0) and equilibrated with running buffer.
Binding studies were carried out by the use of the BIAcore 3000 (GE Healthcare); data evaluation was operated via the BIAevaluation 3.0 software, provided by the manufacturer, using the Langmuir 1:1 model (RI=0). Evaluated dissociation constants (KD) were standardized against the immobilized protein and indicated. Shown is the change in refractive index measured in real time and plotted as response or resonance unit [RU] versus time [sec].

Data set [4] is described as follows: Soluble expression in Escherichia coli BL21(DE3). The data set is classed as physicochemical. The conditions noted are these: expression in E. coli BL21(DE3). The protocol:
Variants with affinity tag were expressed in Escherichia coli BL21(DE3) using a low copy plasmid system under regulation of a T7 promoter. Proteins were produced in soluble form after induction by lactose included in the medium (autoinduction medium). BL21 (DE3) competent cells were transformed with the expression plasmid, spread onto selective agar plates (kanamycin) and incubated overnight at 37° C. Precultures were inoculated from single colony in 3 ml 2×YT medium supplemented with 50 μg/ml kanamycin and cultured for 6 hours at 37° C. at 200 rpm in a conventional orbital shaker in culture tubes. […] Cultures were transferred to an orbital shaker and incubated at 30° C. and 200 rpm. Recombinant protein expression was induced by metabolizing glucose and subsequently allowing lactose to enter the cells. Cells were grown overnight for approx. 17 hours to reach a final OD600 of about 2-4. Before the harvest, the OD600 was measured, samples adjusted to 0.6/OD600 were withdrawn, pelleted and frozen at −20° C. To collect biomass cells were centrifuged at 12000×g for 15 min at 22° C. Pellets were weighed (wet weight). Cells were stored at −20° C. before processing.
as §2

In data set [5] the target is T5, human collagen type V (h Col V) (Homo sapiens, UniProt P05997+P20908).
T5 construct: purchased Abcam ab7537
Description: ELISA specificity vs human collagen type V. The format is binding. The protocol: as §1

Data set [6] concerns the target T6, recombinant human collagen type II (h Col II) (Homo sapiens, UniProt P02458).
T6 construct: purchased Chondrex CHX-20051
Description: KD-determination by ELISA vs human collagen type II. The data set is classed as binding. The conditions noted are these: for binding affinity (KD) to type II collagen by ELISA, in words: tetramers: of different species. On the procedure: as §1

Changes are numbered by the printed parent chain.

T6 sequence (P02458 182-1241): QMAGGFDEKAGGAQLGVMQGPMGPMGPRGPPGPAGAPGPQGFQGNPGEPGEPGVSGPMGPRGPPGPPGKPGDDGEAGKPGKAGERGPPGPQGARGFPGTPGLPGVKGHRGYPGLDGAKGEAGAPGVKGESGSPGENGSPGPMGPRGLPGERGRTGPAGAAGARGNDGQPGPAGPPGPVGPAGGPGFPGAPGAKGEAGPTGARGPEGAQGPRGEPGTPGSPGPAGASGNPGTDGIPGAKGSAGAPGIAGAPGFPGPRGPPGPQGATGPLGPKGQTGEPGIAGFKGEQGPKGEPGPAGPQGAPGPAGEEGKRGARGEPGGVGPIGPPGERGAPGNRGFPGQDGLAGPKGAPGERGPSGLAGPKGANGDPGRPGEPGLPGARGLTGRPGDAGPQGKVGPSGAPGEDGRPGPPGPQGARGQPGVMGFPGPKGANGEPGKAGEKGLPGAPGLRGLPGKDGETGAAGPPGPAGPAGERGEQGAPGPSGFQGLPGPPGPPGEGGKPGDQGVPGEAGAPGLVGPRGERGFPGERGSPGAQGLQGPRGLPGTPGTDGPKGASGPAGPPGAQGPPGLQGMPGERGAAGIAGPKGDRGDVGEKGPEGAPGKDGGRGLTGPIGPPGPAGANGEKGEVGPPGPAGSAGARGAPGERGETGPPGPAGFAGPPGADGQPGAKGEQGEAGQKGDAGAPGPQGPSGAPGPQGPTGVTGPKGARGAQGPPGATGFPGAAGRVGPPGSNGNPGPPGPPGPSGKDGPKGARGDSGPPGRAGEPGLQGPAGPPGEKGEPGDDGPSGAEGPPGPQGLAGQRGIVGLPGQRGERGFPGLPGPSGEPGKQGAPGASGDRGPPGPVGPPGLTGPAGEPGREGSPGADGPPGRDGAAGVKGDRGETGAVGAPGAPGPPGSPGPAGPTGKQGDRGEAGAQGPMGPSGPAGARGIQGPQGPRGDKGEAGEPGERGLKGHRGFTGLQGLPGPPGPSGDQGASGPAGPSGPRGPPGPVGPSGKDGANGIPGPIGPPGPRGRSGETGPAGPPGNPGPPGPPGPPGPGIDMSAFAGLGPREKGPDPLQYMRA
T4 sequence (P02458 182-1241): as above
T1 sequence (P02452 162-1218 limits assumed): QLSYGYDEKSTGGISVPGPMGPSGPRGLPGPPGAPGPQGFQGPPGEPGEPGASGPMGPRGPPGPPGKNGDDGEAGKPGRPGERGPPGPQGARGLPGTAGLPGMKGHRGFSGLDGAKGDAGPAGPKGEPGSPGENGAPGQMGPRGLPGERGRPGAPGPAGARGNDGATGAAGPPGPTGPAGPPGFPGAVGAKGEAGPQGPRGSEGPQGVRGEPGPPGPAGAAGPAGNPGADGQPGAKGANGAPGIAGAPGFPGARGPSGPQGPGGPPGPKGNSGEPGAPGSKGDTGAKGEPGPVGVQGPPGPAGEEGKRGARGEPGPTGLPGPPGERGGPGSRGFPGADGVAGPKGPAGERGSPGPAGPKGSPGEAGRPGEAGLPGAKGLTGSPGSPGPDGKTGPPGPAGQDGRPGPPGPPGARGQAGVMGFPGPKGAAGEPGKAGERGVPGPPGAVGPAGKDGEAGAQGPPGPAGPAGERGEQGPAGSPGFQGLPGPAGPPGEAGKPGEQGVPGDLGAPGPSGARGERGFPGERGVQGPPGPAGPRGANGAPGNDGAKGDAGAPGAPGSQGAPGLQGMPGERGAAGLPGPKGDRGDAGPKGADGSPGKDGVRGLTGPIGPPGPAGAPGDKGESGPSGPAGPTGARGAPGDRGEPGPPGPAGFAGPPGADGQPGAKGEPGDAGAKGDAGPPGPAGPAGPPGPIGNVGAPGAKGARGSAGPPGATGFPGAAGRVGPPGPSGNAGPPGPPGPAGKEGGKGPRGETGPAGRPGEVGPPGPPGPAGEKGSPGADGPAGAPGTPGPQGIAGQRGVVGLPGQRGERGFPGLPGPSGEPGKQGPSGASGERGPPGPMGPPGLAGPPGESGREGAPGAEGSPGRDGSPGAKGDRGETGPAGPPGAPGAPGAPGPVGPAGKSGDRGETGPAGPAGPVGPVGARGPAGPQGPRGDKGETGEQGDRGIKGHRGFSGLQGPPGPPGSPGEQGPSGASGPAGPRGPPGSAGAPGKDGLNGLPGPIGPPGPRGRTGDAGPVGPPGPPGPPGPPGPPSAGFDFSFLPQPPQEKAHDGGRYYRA
T1 sequence (P08123 80-1119 limits assumed): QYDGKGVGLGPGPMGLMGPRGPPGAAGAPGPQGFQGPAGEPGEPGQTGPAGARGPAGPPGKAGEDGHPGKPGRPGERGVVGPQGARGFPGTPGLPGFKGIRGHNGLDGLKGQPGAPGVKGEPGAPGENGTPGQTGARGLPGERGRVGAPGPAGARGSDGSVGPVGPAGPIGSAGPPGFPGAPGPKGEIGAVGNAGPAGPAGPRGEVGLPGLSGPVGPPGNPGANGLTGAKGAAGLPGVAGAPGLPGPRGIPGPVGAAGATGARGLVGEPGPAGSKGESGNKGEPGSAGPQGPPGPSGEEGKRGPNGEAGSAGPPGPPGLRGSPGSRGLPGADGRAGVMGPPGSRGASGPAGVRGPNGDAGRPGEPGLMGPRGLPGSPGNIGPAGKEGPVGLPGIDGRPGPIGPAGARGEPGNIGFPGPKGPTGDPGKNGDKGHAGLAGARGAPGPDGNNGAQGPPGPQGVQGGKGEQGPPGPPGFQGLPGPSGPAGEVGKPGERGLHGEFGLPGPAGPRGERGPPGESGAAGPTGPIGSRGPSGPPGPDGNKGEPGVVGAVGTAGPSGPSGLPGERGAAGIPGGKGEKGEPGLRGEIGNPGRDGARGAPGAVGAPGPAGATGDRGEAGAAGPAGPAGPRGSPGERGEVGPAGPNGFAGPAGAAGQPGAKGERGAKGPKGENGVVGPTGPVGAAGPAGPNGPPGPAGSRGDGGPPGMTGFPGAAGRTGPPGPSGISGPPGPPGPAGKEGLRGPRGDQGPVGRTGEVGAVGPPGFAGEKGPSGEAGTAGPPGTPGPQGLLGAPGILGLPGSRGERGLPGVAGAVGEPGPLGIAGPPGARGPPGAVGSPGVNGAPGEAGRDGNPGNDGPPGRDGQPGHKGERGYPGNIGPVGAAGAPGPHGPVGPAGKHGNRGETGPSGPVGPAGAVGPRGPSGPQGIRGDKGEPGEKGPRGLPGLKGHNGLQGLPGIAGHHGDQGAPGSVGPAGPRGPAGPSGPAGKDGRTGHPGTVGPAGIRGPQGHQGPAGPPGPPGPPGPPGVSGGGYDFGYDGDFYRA
T2 sequence (P02751 1089-1540 limits assumed): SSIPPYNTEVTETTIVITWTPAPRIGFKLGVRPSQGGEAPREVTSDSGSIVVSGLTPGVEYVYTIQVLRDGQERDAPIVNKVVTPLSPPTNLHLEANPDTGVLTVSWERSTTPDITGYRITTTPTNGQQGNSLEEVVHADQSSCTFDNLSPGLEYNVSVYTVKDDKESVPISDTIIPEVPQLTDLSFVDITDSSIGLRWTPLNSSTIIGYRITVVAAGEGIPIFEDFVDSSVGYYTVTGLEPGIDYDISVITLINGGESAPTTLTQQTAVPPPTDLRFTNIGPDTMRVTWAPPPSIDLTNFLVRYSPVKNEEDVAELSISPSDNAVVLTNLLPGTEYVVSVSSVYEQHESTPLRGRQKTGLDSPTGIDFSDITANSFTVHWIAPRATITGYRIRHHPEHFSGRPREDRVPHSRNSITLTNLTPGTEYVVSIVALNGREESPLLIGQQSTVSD

B1: CID 211999: dimer of SEQ ID NO: 2 (dimer of directly joint monomers) (protein)
chain: IAAKFDEAQSAADSEILHLPNLTEQQRHYFRRWLSDDPSVSTHILTQAQHLNDDQAPKIAAKFDEAQSAADSEILHLPNLTEQQRHYFRRWLSDDPSVSTHILTQAQHLNDDQAPKSAWSHPQFEK
modifications: Col2 binding protein (dimer of 211261) (CID211999)
Turning to B1, the “binding to type I collagen (ELISA)” value in data set [1] is “No unspecific binding”. Moreover, in data set [2], the “binding to domain of fibronectin (67B89) (ELISA)” value is recorded as “No unspecific binding”. Besides, the “binding to type III collagen (ELISA)” value with human collagen type III is “No unspecific binding”. In addition, the “Affinity [SPR] vs hCol2” value in data set [3] is given as 127 nM. The “Solubility Soluble expression” value in data set [4] worked out at 100%. Moreover, the “binding to type V collagen (ELISA)” value in data set [5] is “No unspecific binding”. In data set [6], the “binding affinity (KD) to type II collagen by ELISA, in words” value is 1-2-digit nM.

B2: CID 210987: hetero-dimeric binding protein comprising SEQ ID NO: 10 and SEQ ID NO: 6 linked head-to-tail (protein)
chain: IAAKFDEAQQAAFYEILHLPNLTEQQRNYFIQWLRDDPSVSLEVLGTAQRLNDSQAPKIAAKFDEAQQLAFYQILHLENLTEEQRNAFIQSLRDDPSVSLEVLGEAIKLNLSQAPK
modifications: Col2 binding protein (dimer) 210987
For the molecule B2, the “Affinity [SPR] vs hCol2” value in data set [3] came out at 169 nM. The “Solubility Soluble expression” value in data set [4] came out at 80%. In data set [6], the “binding affinity (KD) to human type II collagen (ELISA)” value turned out to be 460 nM.

B3: CID 210992: heterodimer with SEQ ID NO: 10 as N-terminal monomer (protein)
chain: B2 chain with L100T, I107E, L111Y
modifications: Col2 binding protein (dimer) 210992
As to B3, the “Solubility Soluble expression” value in data set [4] came out at 95%.

B4: CID 211027: heterodimer with SEQ ID NO: 10 as N-terminal monomer (protein)
chain: B2 chain with L100A, I107R, L111K
modifications: Col2 binding protein (dimer) 211027
On to B4, for which, in data set [4], the “Solubility Soluble expression” value stood at 85%.

B5: CID 212001: tetramer of SEQ ID NO: 2 (protein)
chain: IAAKFDEAQSAADSEILHLPNLTEQQRHYFRRWLSDDPSVSTHILTQAQHLNDDQAPKIAAKFDEAQSAADSEILHLPNLTEQQRHYFRRWLSDDPSVSTHILTQAQHLNDDQAPKIAAKFDEAQSAADSEILHLPNLTEQQRHYFRRWLSDDPSVSTHILTQAQHLNDDQAPKIAAKFDEAQSAADSEILHLPNLTEQQRHYFRRWLSDDPSVSTHILTQAQHLNDDQAPKSAWSHPQFEK
modifications: Col2 binding protein (tetramer of 211261) (CID212001)
Take B5: the “binding to type I collagen (ELISA)” value in data set [1] is “No unspecific binding”. Besides, in data set [2], the “binding to domain of fibronectin (67B89) (ELISA)” value was “No unspecific binding”. Moreover, the “binding to type III collagen (ELISA)” value in the data set with human collagen type III was “No unspecific binding”. The “Binding to type II collagen via SPR” value in data set [3] (FIG. 3, FIG. 4A) was “binding to type II collagen with high affinity”. The “Affinity [SPR] vs hCol2” value in data set [3] is under 0.5 nM. Moreover, the “Solubility Soluble expression” value in data set [4] is 100%. Moreover, the “binding to type V collagen (ELISA)” value in data set [5] is “No unspecific binding”. In data set [6], the “binding affinity (KD) to type II collagen by ELISA, in words” value is reported as 3 digit-picomolar.

Values taken from patent US20230416345A1, “NEW TYPE II COLLAGEN BINDING PROTEINS” (Navigo Proteins GmbH, priority 2020, published 2023).
